Measurements published in the supplement of paper PMC7125110.
± gives the standard error. For part of these data: Variants at the floor of the assay were thinned out.

B1: glmS ribozyme (parent)
chain: AUAAAAGCGCCAGAACUACAGAAAUGUAGUUGACGAGGAGGAGGUUUAUCGAAUUUUCGGCGGAUGCCUCCAAA

Experiments:
Settings in all cases: with glucosamine-6-phosphate
glucosamine-6-phosphate [1] = variants of: B1; assay: kcat; higher = faster cleavage; RNA array
Method in brief: (§1)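 Tracking of barcoded ribozyme variants used a hybridised Cy3 probe at 37 °C, after in situ transcription by E. coli RNA polymerase on sequenced MiSeq chips. The flowed solution held 40 μM to 10 mM glucosamine-6-phosphate in HEPES/KCl/Mg(OAc)2 buffer, and imaging ran over ~14 h. kobs was taken from exponential decay fits of normalised per-tile medians, and kcat and KM from weighted Michaelis–Menten fits.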

glucosamine-6-phosphate [2] = variants of: B1; assay: self-cleavage kobs at 40 uM GlcN6P; higher = faster cleavage; RNA array
Method in brief: as §1

glucosamine-6-phosphate [3] = variants of: B1; assay: self-cleavage kobs at 2500 uM GlcN6P; higher = faster cleavage; RNA array
Method in brief: as §1

glucosamine-6-phosphate [4] = variants of: B1; assay: self-cleavage kobs at 10000 uM GlcN6P; higher = faster cleavage; RNA array
Method in brief: as §1

glucosamine-6-phosphate [5] = variants of: B1; assay: KM; higher = weaker cofactor use; RNA array
Method in brief: as §1

glucosamine-6-phosphate [6] = variants of: B1; assay: self-cleavage kobs at 640 uM GlcN6P; higher = faster cleavage; RNA array
Method in brief: as §1

glucosamine-6-phosphate [7] = variants of: B1; assay: self-cleavage kobs at 160 uM GlcN6P; higher = faster cleavage; RNA array
Method in brief: as §1

Variant | kcat (glucosamine-6-phosphate [1]) [s⁻¹] | self-cleavage kobs at 40 uM GlcN6P (glucosamine-6-phosphate [2]) [s⁻¹] | self-cleavage kobs at 2500 uM GlcN6P (glucosamine-6-phosphate [3]) [s⁻¹] | self-cleavage kobs at 10000 uM GlcN6P (glucosamine-6-phosphate [4]) [s⁻¹] | KM (glucosamine-6-phosphate [5]) [µM] | self-cleavage kobs at 640 uM GlcN6P (glucosamine-6-phosphate [6]) [s⁻¹] | self-cleavage kobs at 160 uM GlcN6P (glucosamine-6-phosphate [7]) [s⁻¹]
AUAAAAGCGCUAGUACUACAGAAAUGUAGUUGACGAGAAGGAGGUUUAUUGAAUUUUCGGCGGAGGCCUCCAAA [C11U A14U G38A C50U U65G] | 2.42e-05 ± 9.7e-06 | – | – | – | – | – | –
AUAAAAGCGCUAGACCUACAGAAAUGUAGUUGACGAGGAGGAGGUUUAUCUAAUUUUCGGCGGAUGCCUACAAA [C11U A15C G51U C70A] | 6.95e-05 ± 2.4e-05 | 6.91e-05 ± 1.9e-05 | 0.000111 ± 3.3e-05 | 5.08e-05 ± 2e-05 | – | – | –
AUAAAAGCGCUAGAACUACAGAAAUGUAGUUGACGAGGAGGAGGUUUAUCGUAUUUUCGGCGGAUGCCUCCAAA [C11U A52U] | 5.56e-05 ± 4.4e-06 | – | 3.57e-05 ± 1.8e-05 | 4.77e-05 ± 8.4e-06 | 1620 ± 690 | – | –
AUAAAAGCGCUAGAACUACAGAAAUGUAGUUGACGAGGAGGAGGUUUAUCGGAUUUUCGGCGGAUGCCUCCAAA [C11U A52G] | 0.000164 ± 8e-06 | – | 0.000109 ± 1.8e-05 | 0.000139 ± 1.1e-05 | 1690 ± 270 | 4.15e-05 ± 1e-05 | –
AUAAAAGCGCUAGAACUACAGAAAUGUAGUUGACGCGGAGGAGGUUUAUCGAAUUUUCGGCGGAUGCCUCCAAA [C11U A36C] | < 1e-05 | < 1e-05 | – | < 1e-05 | – | – | < 1e-05
AUAAAAGCGCUAGAACUACAGAAAUGUAGUUGACGAGGAGGAGGUUUAUCGAGUUUUCGGCGGAUGCCUCCAAA [C11U A53G] | 0.00166 ± 9.2e-05 | 5.07e-05 ± 5.9e-06 | 0.00111 ± 0.00013 | 0.00145 ± 0.00012 | 1400 ± 120 | 0.000513 ± 4.2e-05 | 0.000156 ± 2e-05
AUAAAAGCGCUAGAACUACAGAAAUGUAGUUGACGAGGAGGAGGUUUAUCGACUUUUCGGCGGAUGCCUCCAAA [C11U A53C] | 0.000605 ± 0.00015 | – | 0.000307 ± 4.8e-05 | 0.000412 ± 6.8e-05 | 3780 ± 1300 | 8.09e-05 ± 1e-05 | 3.37e-05 ± 1.3e-05
AUAAAAGCGCUAGAACUACAGAAAUGUAGUUGACGAGGUGGAGGUUUAUCGAAUUUUCGGCGGAUGCCUCCAAA [C11U A39U] | 0.00145 ± 0.00027 | – | 0.000641 ± 0.00011 | 0.00102 ± 0.00011 | 3780 ± 1200 | 0.000277 ± 4.8e-05 | 4.38e-05 ± 1.1e-05
AUAAAAGCGCUAGAACUACAGAAAUGUAGUUGACGAGGCGGAGGUUUAUCGAAUUUUCGGCGGAUGCCUCCAAA [C11U A39C] | 0.000759 ± 0.00011 | – | 0.000299 ± 5e-05 | 0.00051 ± 5.5e-05 | 4650 ± 1100 | 8.75e-05 ± 1.3e-05 | –
